Measured values reported in patent publication US20150267232A1, “IN VIVO AND IN VITRO CARBENE INSERTION AND NITRENE TRANSFER REACTIONS CATALYZED BY HEME ENZYMES” (California Institute of Technology, priority 2012, published 2015).

What was measured:
[1] = Intramolecular carbene C—H insertion, substrate 4.1a; format: biochemical; conditions: for Yield %: 10 mM 4.1a, 10 uM P450, 10 mM Na2S2O4, product 4.2a
Experimental: Yield of product 4.22b was established after calibration with phenethyl alcohol as an internal standard. The reaction is not catalyzed by the WT-BM3 heme domain or hemin at 5% catalyst loading.
A representative procedure for P450-catalyzed C—H insertion is as follows: A vial containing WT-AxD (20 μL, 200 μM) was sealed with a teflon cap and the headspace of this vial was purged with argon for 5 min. Concurrently, a solution of sodium dithionite (11 mM in phosphate buffer pH=8) was degassed for a minimum of 5 min and 360 μL of this solution was transferred to the vial containing protein. The gas lines were disconnected from the vials. The substrate 4.1a or 4.1b was then added as a solution (20 μL, 200 mM). Final concentrations of all components were: 10 uM enzyme, 10 mM substrate, and 10 mM dithionite. […]
The mixture was extracted with 1 mL cyclohexane and analyzed by GC-MS or GC. GC-MS was performed on a Shimadzu TQ8030 GC-MS with ion count detector and J&W HP-5 column (30 m×0.32 mm, 0.25 μm film) using the following method: 90° C. (hold 2 min), 90-190° C. (20° C./min), and 190-230 (40° C./min)

[2] = N—H insertion, aniline with ethyl 2-diazopropanoate; format: biochemical; conditions: 10 μM catalyst, 20 mM aniline, 10 mM Na2S2O4, 10 mM ethyl 2-diazopropanoate
Experimental: The reactions shown in FIG. 37A were carried out with protein (20 μM), ethyl diazo acetate (8.5 mM), aniline (20 mM) and Na2S2O4 (10 mM) in phosphate buffer (pH 8) and allowed to shake at room temperature for 12 h. Yields are reported in parenthesis and TTN are presented in italics. Yields were determined by GC calibrated for each product. An isolated yield of 65% for compound 4.3 was determined for the milligram scale reaction run as follows: 25 mM EDA, 25 mM aniline, 25 μM protein, and 25 mM Na2S2O4. The reaction producing compounds 4.5 and 4.10 were carried out with protein (20 μM), ethyl diazo acetate (10.0 mM), aniline (20 mM) and Na2S2O4 (10 mM).
While substituted diazo compounds can also be used for insertion, the yield from N—H insertion of ethyl 2-diazopropanoate into aniline is only 26% (product 4.5). To improve efficiency of this reaction, we examined the reaction of ethyl 2-diazopropanoate with a variety of axial mutants. In particular, the axial mutant WT-AxA provided the desired product in 83% yield, compared to 8% yield and 1.7% yield with axial mutant WT-AxS and WT-BM3 heme domain, respectively (FIG. 37B).
The reactions shown in FIG. 37B were carried out with 10 μM catalyst loading, 20 mM aniline, 10 mM Na2S2O4 and 10 mM ethyl 2-diazopropanoate as described above. For the final entry in FIG. 37B, whole cells expressing BM3-CIS-T438S at 2.5 μM were used. See, U.S. Provisional Application No. 61/711,640 for the procedure for catalysis with whole cells.

Molecule	Yield % [1]	lactone formation via C—H bond insertion ([1]; substrates 4.1a and 4.1b, 10 μM variant or hemin at 5% catalyst loading, 16 h)	yield of product 4.5 [2] [%]
WT-BM3 heme: WT heme domain (amino acids 1-463 of SEQ ID NO: 1) (protein, listed as Bacillus megaterium, cytochrome P450NADPH-P-450 reductase precursor, cytochrome P450 (BM3), CYP102A1) TIKEMPQPKTFGELKNLPLLNTDKPVQALMKIADELGEIFKFEAPGRVTRYLSSQRLIKEACDESRFDKNLSQALKFVRDFAGDGLFTSWTHEKNWKKAHNILLPSFSQQAMKGYHAMMVDIAVQLVQKWERLNADEHIEVPEDMTRLTLDTIGLCGFNYRFNSFYRDQPHPFITSMVRALDEAMNKLQRANPDDPAYDENKRQFQEDIKVMNDLVDKIIADRKASGEQSDDLLTHMLNGKDPETGEPLDDENIRYQIITFLIAGHETTSGLLSFALYFLVKNPHVLQKAAEEAARVLVDPVPSYKQVKQLKYVGMVLNEALRLWPTAPAFSLYAKEDTVLGGEYPLEKGDELMVLIPQLHRDKTIWGDDVEEFRPERFENPSAIPQHAFKPFGNGQRACIGQQFALHEATLVLGMMLKHFDFEDHTNYELDIKETLTLKPEGFVVKAKSKKIPLGGIPSPST	0%	not catalyzed	1.7
WT-AxY: WT heme domain + C400Y (protein, listed as Bacillus megaterium, cytochrome P450NADPH-P-450 reductase precursor, cytochrome P450 (BM3), CYP102A1, WT heme domain + C400Y) TIKEMPQPKTFGELKNLPLLNTDKPVQALMKIADELGEIFKFEAPGRVTRYLSSQRLIKEACDESRFDKNLSQALKFVRDFAGDGLFTSWTHEKNWKKAHNILLPSFSQQAMKGYHAMMVDIAVQLVQKWERLNADEHIEVPEDMTRLTLDTIGLCGFNYRFNSFYRDQPHPFITSMVRALDEAMNKLQRANPDDPAYDENKRQFQEDIKVMNDLVDKIIADRKASGEQSDDLLTHMLNGKDPETGEPLDDENIRYQIITFLIAGHETTSGLLSFALYFLVKNPHVLQKAAEEAARVLVDPVPSYKQVKQLKYVGMVLNEALRLWPTAPAFSLYAKEDTVLGGEYPLEKGDELMVLIPQLHRDKTIWGDDVEEFRPERFENPSAIPQHAFKPFGNGQRAYIGQQFALHEATLVLGMMLKHFDFEDHTNYELDIKETLTLKPEGFVVKAKSKKIPLGGIPSPST	trace		
WT-AxS: WT heme domain + C400S (protein, listed as Bacillus megaterium, cytochrome P450NADPH-P-450 reductase precursor, cytochrome P450 (BM3), CYP102A1, WT heme domain + C400S) TIKEMPQPKTFGELKNLPLLNTDKPVQALMKIADELGEIFKFEAPGRVTRYLSSQRLIKEACDESRFDKNLSQALKFVRDFAGDGLFTSWTHEKNWKKAHNILLPSFSQQAMKGYHAMMVDIAVQLVQKWERLNADEHIEVPEDMTRLTLDTIGLCGFNYRFNSFYRDQPHPFITSMVRALDEAMNKLQRANPDDPAYDENKRQFQEDIKVMNDLVDKIIADRKASGEQSDDLLTHMLNGKDPETGEPLDDENIRYQIITFLIAGHETTSGLLSFALYFLVKNPHVLQKAAEEAARVLVDPVPSYKQVKQLKYVGMVLNEALRLWPTAPAFSLYAKEDTVLGGEYPLEKGDELMVLIPQLHRDKTIWGDDVEEFRPERFENPSAIPQHAFKPFGNGQRASIGQQFALHEATLVLGMMLKHFDFEDHTNYELDIKETLTLKPEGFVVKAKSKKIPLGGIPSPST			8
WT-AxA: WT heme domain + C400A (protein, synthetic cytochrome P450-BM3 variant WT-AxA (heme), WT heme domain + C400A) TIKEMPQPKTFGELKNLPLLNTDKPVQALMKIADELGEIFKFEAPGRVTRYLSSQRLIKEACDESRFDKNLSQALKFVRDFAGDGLFTSWTHEKNWKKAHNILLPSFSQQAMKGYHAMMVDIAVQLVQKWERLNADEHIEVPEDMTRLTLDTIGLCGFNYRFNSFYRDQPHPFITSMVRALDEAMNKLQRANPDDPAYDENKRQFQEDIKVMNDLVDKIIADRKASGEQSDDLLTHMLNGKDPETGEPLDDENIRYQIITFLIAGHETTSGLLSFALYFLVKNPHVLQKAAEEAARVLVDPVPSYKQVKQLKYVGMVLNEALRLWPTAPAFSLYAKEDTVLGGEYPLEKGDELMVLIPQLHRDKTIWGDDVEEFRPERFENPSAIPQHAFKPFGNGQRAAIGQQFALHEATLVLGMMLKHFDFEDHTNYELDIKETLSLKPKGFVVKAKSKKIPLGGIPSPST	trace		83
WT-AxN: WT heme domain + C400N (protein, synthetic cytochrome P450-BM3 variant WT-AxN (heme), WT heme domain + C400N) TIKEMPQPKTFGELKNLPLLNTDKPVQALMKIADELGEIFKFEAPGRVTRYLSSQRLIKEACDESRFDKNLSQALKFVRDFAGDGLFTSWTHEKNWKKAHNILLPSFSQQAMKGYHAMMVDIAVQLVQKWERLNADEHIEVPEDMTRLTLDTIGLCGFNYRFNSFYRDQPHPFITSMVRALDEAMNKLQRANPDDPAYDENKRQFQEDIKVMNDLVDKIIADRKASGEQSDDLLTHMLNGKDPETGEPLDDENIRYQIITFLIAGHETTSGLLSFALYFLVKNPHVLQKAAEEAARVLVDPVPSYKQVKQLKYVGMVLNEALRLWPTAPAFSLYAKEDTVLGGEYPLEKGDELMVLIPQLHRDKTIWGDDVEEFRPERFENPSAIPQHAFKPFGNGQRANIGQQFALHEATLVLGMMLKHFDFEDHTNYELDIKETLSLKPKGFVVKAKSKKIPLGGIPSPST	0%		
WT-AxM: WT heme domain + C400M (protein, synthetic cytochrome P450-BM3 variant WT-AxM (heme), WT heme domain + C400M) TIKEMPQPKTFGELKNLPLLNTDKPVQALMKIADELGEIFKFEAPGRVTRYLSSQRLIKEACDESRFDKNLSQALKFVRDFAGDGLFTSWTHEKNWKKAHNILLPSFSQQAMKGYHAMMVDIAVQLVQKWERLNADEHIEVPEDMTRLTLDTIGLCGFNYRFNSFYRDQPHPFITSMVRALDEAMNKLQRANPDDPAYDENKRQFQEDIKVMNDLVDKIIADRKASGEQSDDLLTHMLNGKDPETGEPLDDENIRYQIITFLIAGHETTSGLLSFALYFLVKNPHVLQKAAEEAARVLVDPVPSYKQVKQLKYVGMVLNEALRLWPTAPAFSLYAKEDTVLGGEYPLEKGDELMVLIPQLHRDKTIWGDDVEEFRPERFENPSAIPQHAFKPFGNGQRAMIGQQFALHEATLVLGMMLKHFDFEDHTNYELDIKETLSLKPKGFVVKAKSKKIPLGGIPSPST	0%		
